Results on 18 sequences are retold here after the DeepSol protein solubility set.

This data set is described as follows: soluble on expression in E. coli; label from the status in PepcDB or PDB records.
As for “MAWYEGAFFYQIFPDRFFRAGPPGRPAPAGPFEPWEAPPTLRGFKGGTLWGVAEKLPYLLDLGVEAIYLNPVFASTANHRYHTVDYFQVDPILGGNEALRHLLEVAHAHGVRVILDGVFNHTGRGFFAFQHLMENGEQSPYRDWYHVKGFPLKAYTAHPNYEAWWGNPELPKLKVETPAVREYLLAVAEHWIRFGVDGWRLDVPNEIPDPTFWREFRQRVKGANPEAYIVGEIWEEADFWLQGDMFDAVMNYPLARAVLGFVGGEALDRDLAAQTGLGRIEPLQALAFSHRLEDLFGRYRPEVVRAQMNLLTSHDTPRLLSLMRGSVERARLALALLFLLPGNPTVYYGEEVGMAGGKDPENRGGMVWEEARWQKDLRETVKRLARLRKEHPALRTAPYLRIYAQDGHLAFARGPYLAVVNASPHPFRQDFPLHGVFPRGGRAVDLLSGEVCTPQGGRLCGPVLPPFSLALWREA”, the “soluble on expression in E. coli” value is “soluble”.
The value for “MSFSQAVSGLNAAATNLDVIGNNIANSATYGFKSGTASFADMFAGSKVGLGVKVAGITQDFTDGTTTNTGRGLDVAISQNGFFRLVDSNGSVFYSRNGQFKLDENRNLVNMQGMQLTGYPATGTPPTIQQGANPAPITIPNTLMAAKSTTTASMQINLNSTDPVPSKTPFSVSDADSYNKKGTVTVYDSQGNAHDMNVYFVKTKDNEWAVYTHDSSDPAATAPTTASTTLKFNENGILESGGTVNITTGTINGATAATFSLSFLNSMQQNTGANNIVATNQNGYKPGDLVSYQINNDGTVVGNYSNEQEQVLGQIVLANFANNEGLASQGDNVWAATQASGVALLGTAGSGNFGKLTNGALEASNVDLSKELVNMIVAQRNYQSNAQTIKTQDQILNTLVNLR” was “not soluble”.
With “MTRPFNRVHLIVMDSVGIGEAPDAADFKDEGSHTLRHTLEGFDQTLPNLEKLGLGNIDKLPVVNAVEQPEAYYTKLSEASVGKDTMTGHWEIMGLNIMQPFKVYPNGFPEELIQQIEEMTGRKVVANKPASGTQIIDEWGEHQMKTGDLIVYTSADPVLQIAAHEDIIPLEELYDICEKVRELTKDPKYLIGRIIARPYVGEPGNFTRTSNRHDYALKPFGKTVLDHLKDGGYDVIAIGKINDIYDGEGVTEAVRTKSNMDGMDQLMKIVKKDFTGISFLNLVDFDALYGHRRDKPGYAQAIKDFDDRLPELFSNLKEDDLVIITADHGNDPTAPGTDHTREYIPVIMYSPKFKGGHALESDTTFSSIGATIADNFNVTLPEFGKSYLKELK”, the “soluble on expression in E. coli” value is recorded as “not soluble”.
Consider “MGSDKIHHHHHHMTKSLNGLRILNTRPREQAQVLNKKIIESGGIPIDCPTMEIMASETNWINNLPDLTSVNQAIFVSTNAVRYFMMELASKNINWPNSIRVTAIGKGTSRVLNEFNIQVSDVPELPDSEHLLTLNSLQQIRNQTILLVKGEGGRQLIEEYLMLKGAKLCLLSVYKRVMPAIDQEFINSLWRDDLVDIILLTSEQSIHNLFKMFSIEGQMWLQNKPCLVISDRLAKVASLFGIKKILISHPERMIGALFDYKD”, for which the “soluble on expression in E. coli” value is recorded as “not soluble”.
With “MGTEFNGLFDEWAHTYDSFVQGEDIQYKEVFAHYEDILEDVVNKSFGNVLEFGVGTGNLTNKLLLAGRTVYGIEPSREMRMIAKEKLPKEFSITEGDFLSFEVPTSIDTIVSTYAFHHLTDDEKNVAIAKYSQLLNKGGKIVFADTIFADQDAYDKTVEAAKQRGFHQLANDLQTEYYTRIPVMQTIFENNGFHVTFTRLNHFVWVMEATKQLEHHHHHH”, the “soluble on expression in E. coli” value is “soluble”.
For “MGNRLKAARSPYLLAHAEDPVDWYPFGEEAFRKAQAEDKPIFLSVGYASCHWCHVMHRESFQDEEVARLLNAHFVPVKVDREERPDVDAAYMRALVSLTGQGGWPMSLFLTPEGKPFFGGTYFPKEDRMGLPGFKRVLVAVAEAWAGKREAILEEAERLTRALWKSLSPPPGPLPEGAEEEALDHLERAFDPEWGGFLPAPKFPQGPLLLYLLARAWEGEERAARLLRPTLRAMALGGVYDQVGGGFHRYSVDRFWRLPHFEKMLYDNALLARVYLGAYKLFGEDLFLRVARETLDWLLSMQRREGGFHTALDAESEGEEGRYYTWTEAELREALGEDFPLARRYFALGEDLGERSVLTAWGEAEARKALGEGFFAWREGVRAKLQGARRRRMPPALDDKVLADWSALAVRALAEAGRLFGEERYLEAAKRGARFLLAHMYREGLLRHTWRGSLGEEAYLSDQAFAALAFLELYAATGEWPYLDWAQRLAEAGWRLFREGPSLPLPAKEVEEGALPSGESALAEALVRLGAVFGGDYRERAEEVLAEKARWLARYPHALPGALLAKALWERGTELALPLPSPLLEAARGAFLPLTQLVLGPAGALPALEGREAGKAYVCRRGVCLLPVDRWEEVEARVRGDD”, the “soluble on expression in E. coli” value was “soluble”.
As to “MGSDKIHHHHHHMPEPDPLRIKTFTTPKDLGEWLKVNHGSERELWVKIYKKNTGIESVTWNDVVIEVLCWGWIDGIKKSIDDQAYLQRITPRKMRSNWSKRNTEHAERLISEERMMESGLVHIRAAKSDGRWENAYVVSEMEVPADFLAALENKSNAKAFFETLNKSSRYVIAYGLISAKKPETRLRRFEKFMNMLVHEEKPK”, the “soluble on expression in E. coli” value is on record as “not soluble”.
To “MSSDRIVITGVAINTPIGDTLDLVGNNLLSGKSAIGYWRNFDTSNIYSKIGGQIPEYDIEGKLHAFSNRIPDIVLSRAEKVFKQTTKGVQLSVLMAMEAWLDAGLFEHIIDPFDCGIICGGHNLSDKYLLDQQKIFSDEPEFIDAFSGLNSLDTDHSSSVAQVLNTKGFAYLVGGTCATGNIAIQTAINAIKVDKKQVVAVVCPMASFHPMMLHSLTILEAICYSQYQDTPTKASRPYDINRSGFLPSEGGAVLIFEQAEHAKNRGAKIYAELLGASVNSDANHLGDPSHEGQVRVIQDVLKKCNISPEQVDYVSAHATSTKLGDIVELKSIKRVFGSHAEKLIINAPKSLLGHTMWASGVVEAAIAIWQMRQGEFHQSHNIETLDPAVELNVCASGNVKKEVNIFLNNSFGMGGINSASLFSRYHG” belongs “not soluble”; to “SMPDEVPLDEQCERLPYDASKWEFARERLKLGKSLGRGAFGKVVQASAFGIKKSPTCRTVAVKMLKEGATASEYKALMTELKILTHIGHHLNVVNLLGACTKQGGPLMVIVEYCKYGNLSNYLKSKRDLFFLNKDAALHMEPKKEKMEPGLEQGKKPRLDSVTSSESFASSGFQEDKSLSDVEEEEDSDGFYKEPITMEDLISYSFQVARGMEFLSSRKCIHRDLAARNILLSENNVVKICDFGLARDIYKNPDYVRKGDTRLPLKWMAPESIFDKIYSTKSDVWSYGVLLWEIFSLGGSPYPGVQMDEDFCSRLREGMRMRAPEYSTPEIYQIMLDCWHRDPKERPRFAELVEKLGDLL”, “soluble”; to “MTYTGSIRCEGDTWDLASSVGATATMVAAARAMATRAANPLINDQFAEPLVRAVGVDVLTRLASGELTASDIDDPERPNASMVRMAEHHAVRTKFFDEFFMDATRAGIRQVVILASGLDSRAYRLAWPAQTVVYEIDQPQVMEFKTRTLAELGATPTADRRVVTADLRADWPTALGAAGFDPTQPTAWSAEGLLRYLPPEAQDRLLDNVTALSVPDSRFATESIRNFKPHHEERMRERMTILANRWRAYGFDLDMNELVYFGDRNEPASYLSDNGWLLTEIKSQDLLTANGFQPFEDEEVPLPDFFYVSARLQRKHRQYPAHRKPAPSWRHTACPVNELSKSAAYTMTRSDAHQASTTAPPPPGLTG”, “soluble”.
On to “MEQDNSPQKIQFTVPLLEPHLDPEAAEQIRRRRPTPATLVLTSDQSSPEIDEDRIPNPHLKSTLAMSPRQRKKMTRITPTMKELQMMVEHHLGQQQQGEEPEGAAESTGTQESRPPGIPDTEVESRLGTSGTAKKTAECIPKTHERGSKEPSTKEPSTHIPPLDSKGANSV”, for which the “soluble on expression in E. coli” value is reported as “soluble”.
For “MSLQTKHIDDLKEALMCQRNNDDKLEDLVGKIVNDYHTYAGKRSELSYRCCAHYFAPSWNTPIENSMLWMGGCRPSSFIRLIYALCGSQAETQLSQYLLKIDDDFDINHGGFMSDLTATQLGKLNDLHLEVIKKEDKITKTSANFQDDVADLPIADVVHADVAVEDALDKHEEGMAVLLAEADKLRFETLRKIVDVVTPLQAVEFLLAGKRLQLSLHDRGRVRADVCGGVGGAAV”, the “soluble on expression in E. coli” value is recorded as “soluble”.
As to “MGSDKIHHHHHHMSTDNLALNIREKAMEAGFDHCGIVKIDALADYVSRLEERAAAFPRSKPFYDFLSKLGTPQAAHEWGKSVIVCAMRYGKYRIPNRADRHIGKLYLYGGYRQPAYSQEYAGMAGFEAFLAAEGIRFAKDVFGIAPARLCAAQANLGVIRNNNFLYTEHGSWVWLETWLIDRELEYRESPNTLPSCPPGCSKCIDACPTGALKAPFLTDMGTCIARLTYSPSGEAPEPLRESMGTWLYGCDECQNACPMNKGRWEEKEEYPRLEELSRHISLEKIAEMDEHAVSDILSPMFWIIGKEKLWMWKCNVIRAMVNGKDPGHHSTIRKLCDDGNENVRRTAEWACRQLGI”, the “soluble on expression in E. coli” value is “not soluble”.
Take “GPHSLRYFVTAVSRPGLGEPRFIAVGYVDDTQFVRFDSDADNPRFEPRAPWMEQEGPEYWEEQTQRAKSDEQWFRVSLRTAQRYYNQSKGGSHTFQRMFGCDVGSDWRLLRGYQQFAYDGRDYIALNEDLKTWTAADTAALITRRKWEQAGDAEYYRAYLEGECVEWLRRYLELGNETLLRTDSPKAHVTYHPRSQVDVTLRCWALGFYPADITLTWQLNGEDLTQDMELVETRPAGDGTFQKWAAVVVPLGKEQNYTCHVHHKGLPEPLTLRWKLPPSTVSN”: the “soluble on expression in E. coli” value is recorded as “soluble”.
Regarding “MDSSQVPNPVLVLVGSPRRDGNSALLAQAVAEGARQSGAAATLLFLDDYIAGFLTDEKEADARRPDDRYGELFFDHFLPARAVVLCTPVYWYGMSAQAKAFFDRSFTYYSASHPRHAEVLRRMTGKRLALAVSSEETYPGAALGIVHQLQEFTRYTHSQFVGMVHGAGNRRGEVAHDPRRPLQAAHRLGHDLLSLPYSDYRIDSPRDHQVWPGAPA”, the “soluble on expression in E. coli” value is “not soluble”.
In the case of “MSDLADNAIDAARQENVARILEAAERLFRHYGYAKTNVADIARELDMSPANIYRFFASKTEIHQTLCLRMLGASYQQALEIAHLPLSASERLRRYALGQHKLTVETMLDEQKVHEMVVVAIERDWHVIEKHISRLDDLLAGIIREGIEAGEFADVDPAVAARCFGASLVTLCHPQIVAQCLAKENRATPDELVEFAIRALKK”, the “soluble on expression in E. coli” value is reported as “soluble”.
Take “MGSDKIHHHHHHMSILEVRGIEKTYSGKRILKAVSFDLESGKLTVLGGLNGIGKSTLIKMMSGDIRPDSGEIVFDGHHVELRSIVEARRIGLSAVYQEYMLVPDLTVAENIFLGSGKFTISRKKMNSEASRLLSKFGLSFDPSSKVSSLSSDEQALLEFAAAVFSEPKVLMIDDLFSVLQTESRKRLLQMIEVIKNKGTAVLVVTTDPDLMLMADHLLFMDESGVEYLPCPIERGAILERMGASSDFSILPAEGELLIEISNLAGSGQDLSLKRGEVLNIFCESGELVRAFTRAMIRQDPFTDNSVPLFREAKSFFDRFSSRSSSTPAEKYFCSNLKNTGLVSQVMLKKSGSFKSSKSLKKSFILNKESVVSVKSFLAGLERIPGFSGLVSEEDKKLSQLRFDACDLYVFVRPLLGLDPVSVNALSTVLQEIVNRSKAAVIISDEAGSSMLSTRKMRSSE”: the “soluble on expression in E. coli” value was “not soluble”.
As for “SLPLPLVVAVLDSEDEKEGRTCAIVAFGFRYIHPASGAQVDVPEGYVTDFASIPAPVRGLFPPFGRHAKAAVLHDWLYLIGEPGQRAFADRIFLDAMDDLRVSLVRRSIMHRAVRLAGGGAYAKEASTWARAFGNWRTGDRHTPPFTAESRYQAHWPVPPRPDFRP”, the “soluble on expression in E. coli” value was “not soluble”.
